In patent publication US20190169305A1 (TEIKYO HEISEI UNIVERSITY, published 2019):

Experiments:
[1] = target: T1, bovine serum albumin (bovine, UniProt P02769 25-607); assay: ELISA, BSA coated at 1 or 10 µg/ml, 4E6 monomer at 1 µg/ml, detected with anti-Myc 9E10 and anti-mouse IgG HRP, OD450
T1 construct: also called BSA; BSA negative antigen

[2] = target: T2, human TRAIL-R2:alpaca Fc (hTRAIL-R2:Fc) (human; Lama pacos (alpaca)); assay: SPR, Biacore X-100, multi-cycle kinetics, 4E6 monomer as analyte (0.919-117.6 nM)
T2 construct: also called hTRAIL-R2:Fc antigen; recombinant human TRAIL-R2:Fc antigen
T2 chain: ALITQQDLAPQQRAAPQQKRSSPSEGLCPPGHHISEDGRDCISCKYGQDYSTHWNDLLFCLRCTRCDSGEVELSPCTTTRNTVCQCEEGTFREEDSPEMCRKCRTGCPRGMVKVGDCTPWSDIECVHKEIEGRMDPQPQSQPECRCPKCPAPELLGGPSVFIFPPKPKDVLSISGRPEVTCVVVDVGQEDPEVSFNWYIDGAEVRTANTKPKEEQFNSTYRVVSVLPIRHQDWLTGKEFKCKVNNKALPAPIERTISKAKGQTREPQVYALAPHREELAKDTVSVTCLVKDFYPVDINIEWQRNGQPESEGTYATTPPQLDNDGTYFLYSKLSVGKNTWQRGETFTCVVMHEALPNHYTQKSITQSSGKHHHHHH

[3] = target: T3, human TRAIL-R1:alpaca Fc (hTRAIL-R1:Fc) (human; Lama pacos (alpaca)); assay: ELISA, antigens coated at 1 µg/ml, VHH monomer at 10 µg/ml, absorbance 450 nm
T3 construct: also called hTRAIL-R1:Fc antigen; recombinant human TRAIL-R1 ECD
T3 chain: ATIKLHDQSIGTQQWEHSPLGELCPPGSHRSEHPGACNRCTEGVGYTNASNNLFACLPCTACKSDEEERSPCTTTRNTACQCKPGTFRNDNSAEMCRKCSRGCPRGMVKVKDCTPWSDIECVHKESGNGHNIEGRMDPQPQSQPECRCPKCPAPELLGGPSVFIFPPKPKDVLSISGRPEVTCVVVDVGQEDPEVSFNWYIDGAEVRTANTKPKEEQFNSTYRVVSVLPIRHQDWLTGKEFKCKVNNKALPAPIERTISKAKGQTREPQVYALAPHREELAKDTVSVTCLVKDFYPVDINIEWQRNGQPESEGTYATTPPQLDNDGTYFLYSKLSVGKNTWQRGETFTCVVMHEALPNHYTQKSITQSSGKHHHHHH

[4] = target: T4, mouse TRAIL-R2:alpaca Fc (mTRAIL-R2:Fc) (mouse; Lama pacos (alpaca), UniProt Q9QZM4 52-177); assay: as above
T4 construct: range 52-177;range 102-335; also called mTRAIL (mouse TRAIL)-R2:Fc
T4 sequence: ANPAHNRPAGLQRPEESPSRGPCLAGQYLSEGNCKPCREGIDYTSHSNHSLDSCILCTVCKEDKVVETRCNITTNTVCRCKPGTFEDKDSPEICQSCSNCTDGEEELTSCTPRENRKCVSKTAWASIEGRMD

T1 sequence (P02769 25-607 limits assumed): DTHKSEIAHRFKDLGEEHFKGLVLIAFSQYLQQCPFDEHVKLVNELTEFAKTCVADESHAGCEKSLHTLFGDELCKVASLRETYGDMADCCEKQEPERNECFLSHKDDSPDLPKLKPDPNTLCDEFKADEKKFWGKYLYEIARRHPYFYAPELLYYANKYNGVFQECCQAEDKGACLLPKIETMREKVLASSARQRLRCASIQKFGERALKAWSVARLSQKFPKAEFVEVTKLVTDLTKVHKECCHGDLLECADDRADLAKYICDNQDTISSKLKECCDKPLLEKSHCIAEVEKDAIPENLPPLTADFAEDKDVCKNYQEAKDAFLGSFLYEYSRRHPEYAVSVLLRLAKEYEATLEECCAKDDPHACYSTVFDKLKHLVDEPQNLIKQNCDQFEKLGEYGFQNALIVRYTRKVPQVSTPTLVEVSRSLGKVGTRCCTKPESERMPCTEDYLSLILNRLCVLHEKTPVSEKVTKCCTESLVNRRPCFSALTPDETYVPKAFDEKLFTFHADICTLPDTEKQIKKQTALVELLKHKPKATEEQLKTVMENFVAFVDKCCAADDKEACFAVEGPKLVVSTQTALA

B1: 4E6 monomer (anti-hTRAIL-R2 VHH antibody/Myc-Tag, expressed in E. coli) (VHH)
VHH: EVQLVESGGGSVQAGDSLRLSCAASGRTFGSIRVGWFRQTPGKEREFVAAINRNDGTTYYADSVKGRFTISRDNAKNTVYMQMASLKPEDTAVYYCAAGLQYNRSADRVPVGAVYWGQGTQVTVSS
notes: also called 4E6 VHH monomer; 4E6 monomeric protein
Q: Does B1 bind [1]?
A: Result: no binding (tested: 1 µg/ml)

Q: And the Kd [2]?
A: Its Kd is 0.075 nM.

Q: Does B1 bind [3]?
A: Result: no binding (tested: 10 µg/ml)

Q: Does B1 bind [4]?
A: Result: no binding (tested: 10 µg/ml)
